The values that follow come from patent publication US12138415B2, “Increased bioavailability of transdermally delivered agents” (priority 2011, dated 2024).

The test system of series [1] is monolayer of Caco-2 cells. Briefly: Caco-2 monolayer permeability (TEER) transport study of FITC-etanercept with Dynasore blocking Dynamin. Format: in vitro ADME, human. The following applies: DN2 polypropylene film, 0.1 mg/mL Dynasore and FITC-conjugated etanercept, FIG. 25. Here is the method:
The permeability effects of films patterned as described above were determined on a monolayer of Caco-2 cells (human epithelial colorectal adenocarcinoma cells). The effects of the nanostructured surfaces on transcellular transport mechanisms were investigated by blocking Dynamin, a critical protein in endocytosis, with Dynasore. Dynamin is a large GTPase protein that self-assembles into a spiral shape, constricting around budding vesicles to free them from the plasma membrane and into the cytosol for transcellular transport. The small molecule, Dynasore, is able to rapidly block the activity of Dynamin by quickly inhibiting the GTPase module of Dynamin within about 2 minutes and has been used in numerous studies for probing the mechanisms of cellular internalization and endocytosis for transcellular transport. The transport study was a transepithelial electrical resistance (TEER) study that was carried out in the presence of Dynasore to biochemically block the activity of Dynamin and preclude both clathrin and caveolin mediated endocytosis.
Films formed as described in Example 1 and Example 2 were utilized including a polypropylene (PP) film formed with a pattern designated as DN2, and a flat, nonpatterned polypropylene film. As control, a monolayer of cells with no associated film was utilized.
• 1. […] Measure fluorescence signal using a spectrofluorometer plate reader. […]
(Caco-2 cells form a polarised layer with tight junctions and transporters.)

The next series relates to EpiDerm™ tissue. Briefly: Etanercept delivery across EpiDerm tissue on nanopatterned film (donor/receptor chamber). The class given is in vitro ADME. The following applies: 1 mg/mL, 37° C.; for increase in the amount of etanercept in the receiver chamber: EpiDerm tissue on DN2 patterned film. The text has this: A device as illustrated in FIG. 28 was assembled including a film (i.e., a membrane) defining a pattern of nanostructures on a surface thereof. The film was formed as described above in Example 1 and was a polypropylene film including a DN2 pattern on the surface thereof. An EpiDerm™ tissue, a three dimensional construct organized into basal, spinous, and granular layers along a multi-layered stratum corneum available from MatTek Corporation, was located on the surface of the film as described above with regard to the monocellular layer.
A 1 mg/mL composition including the high molecular weight drug etanercept (Enbrel®) was prepared. Etanercept is a fusion protein having a molecular weight of 150 kDa. Phosphate buffered saline was located in the receptor chamber. The system was incubated at 37° C. and samples were withdrawn every five hours.
The composition was loaded in to the donor chamber on one side of an EpiDerm™ tissue either on the DN2 nanostructure film or on a polypropylene film with no nanopattern formed thereon (PPUI), and samples were withdrawn from the receptor chamber on the other side of the cell layer, as illustrated in FIG. 28. As can be see with reference to FIG. 29, following one hour, very little etanercept had passed into the receptor chamber for the control, while there was approximately a 1.7 fold increase in the amount of etanercept in the receiver chamber for the sample on the DN2 patterned film. After two hours, there was an approximately 2-fold increase for the system including the DN2 patterned film.

The conditions of series [2]: rabbit, in vivo. The text has this: An array of microneedles including a nanopatterned surface was formed. Initially, an array of microneedles as illustrated in FIG. 2 was formed on a silicon wafer via a photolithography process. Each needle included two oppositely placed side channels, aligned with one through-die hole in the base of the needle (not visible on FIG. 2).
Microneedles were formed according to a typical micromachining process on a silicon based wafer. The wafers were layered with resist and/or oxide layers followed by selective etching (oxide etching, DRIE etching, iso etching), resist stripping, oxide stripping, and lithography techniques (e.g., iso lithography, hole lithography, slit lithography) according to standard methods to form the array of microneedles. The microneedles were 300 microns tall and 100 microns in diameter.
Following formation of the microneedle array, a 5 μm polypropylene film including a DN2 or a polypropylene film including a DN3 pattern formed thereon as described above in Example 1 was laid over the microneedle array. The wafer/film structure was held on a heated vacuum box (3″ H2O vacuum) at elevated temperature (130° C.) for a period of one hour to gently pull the film over the surface of the microneedles while maintaining the nanopatterned surface of the film.
The transdermal patches measured 25 mm by 25 mm with a density of 784 microneedles/cm^2. Control patches were also formed that had no pattern formed on the film subsequently applied to the array of microneedles.
Two subjects were utilized for each device type.
Approximately 100 to 200 μl blood was taken via—mandibular bleeding and then centrifuged at approximately 1300 rpm for 10 minutes in a refrigerated centrifuge (set at 4° C.). The resulting serum was aspirated and transferred within 30 minutes of blood collection/centrifugation to appropriately labeled tubes. The tubes were frozen and stored in the dark at ≤−70° C. until they were analyzed for levels of Enbrel® using Human sTNF-receptor ELISA kit (R&D Systems cat #DRT200). The space time between two blood samplings on the same subject was 24 hours, to prevent unnecessary stress placed on the subject.
Following, the blood serum level gradually declined within 56 hours of attachment and then leveled off.

Series [3] can be described thus: Organ and tissue etanercept concentration after 72 hours (sTNF RII ELISA). To be noted: rabbit.
Description: Test subjects (rabbits) were transdermally dosed with Enbrel® or were subcutaneously (SubQ) dosed with Enbrel®. […] The subcutaneous dose formulation (for the positive control) was prepared to facilitate a 2.5 mg/animal and the transdermal dose formulation was 1.875 mg/animal. Two subjects were utilized for each device type.
After 72 hours, several different organs and tissue types in each subject were examined for etanercept concentration. Specifically, organ representative samples of approximately 100 mg each were placed in labeled 50 mL conical storage tubes and stored in the dark at approximately −70° C. for preservation testing.
For analysis of Enbrel levels in tissues at the analytical laboratory, tissues were tested by use of a Quantikine® Human sTNF RII/TNFRSF1B Immunoassay (catalog no. DRT200, SRT200, PDRT200) available from R&D Systems, Inc. of Minneapolis, MN, USA. The immunoassay is a solid phase ELISA assay for determination of sTNF RII. The protein was measured against the standard provided with the kit, and etanercept was measured against a standard curve, with concentrations based on the dosage details.
All concentrations are provided as ng/g tissue. The ELISA detection mechanism could be utilized for concentrations down to about 0.6 pg/mL. Results of <MIN signify a concentration too low to be determined by the ELISA assay. Results of N/A indicate an error in the ELISA assay, with no reportable results obtained.
The next series concerns Dynamin. The following applies: cited from earlier work.

For etanercept, the “effect of blocking the transcellular delivery route on etanercept transport across the layer” value in series [1] was “did not significantly decrease”. The “increase in the amount of etanercept in the receiver chamber” value with EpiDerm™ tissue (after two hours) was “approximately 2 fold”. Also, in the series on EpiDerm™ tissue (following one hour), the “increase in the amount of etanercept in the receiver chamber” value is on record as roughly 1.7 fold. Besides, the “amount of etanercept passed into the receptor chamber” value with EpiDerm™ tissue (EpiDerm tissue on polypropylene film with no nanopattern (PPUI, control), following one hour) is recorded as “very little”. In series [2], the “absorption of etanercept compared to the flat, unstructured device” value is reported as “significantly increased”; the “bioavailability relative to the control patch” value is recorded as “about 35 times”; the “blood serum level of etanercept (course)” value is listed as “very low levels”; the “decrease of time to reach the maximum concentration” value is roughly 24 h. In series [2], the “increase in the maximum concentration” value is reported as 95%; the “time of peak blood serum level” value is given as “approximately 48 hours”; the “time within which blood serum level gradually declined, then leveled off” value was no more than 56 h. Also, the “etanercept concentration in kidney” value in series [3] (Subcutaneous dose 2.5 mg/animal) was 10.14 ng/g tissue. For the same molecule, the “etanercept concentration in kidney” value in series [3] (microneedle patch with Control Film (no pattern), 1.875 mg/animal) is 10.66 ng/g tissue. Also, the “etanercept concentration in kidney” value in series [3] (microneedle patch with DN3 pattern, 1.875 mg/animal) amounted to 11.3 ng/g tissue.

Regarding `O=C(N/N=C/c1ccc(O)c(O)c1)c1cc2ccccc2cc1O` [Dynasore], the “time to inhibit the GTPase module of Dynamin” value in the series with Dynamin is no more than 2 min.
